# The supplement of paper PMC10567573
# B1: WEE1 (parent)
# chain: FISRTSIPNAASEEGDEDDWASNK
# B2: LOC100129726 (parent)
# chain: VHTGCHKKLGPEARRPRTRWGKN
# Variants of: B1
# Experiment: protein stability index of a GFP-peptide fusion (GPS, HEK-293T) (PSI 1-6); higher = more stable
# Conditions: c terminus: a fixed tail appended
# 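Further: lentivirally expressed fusions sorted by FACS into six bins by GFP to DsRed ratio, PSI derived from sequencing read proportions per bin multiplied by bin number.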
row,Variant,protein stability index
1,T5D,4.2
2,T5H,3.21
3,T5E,4.85
4,T5I,3.5
5,T5M,3.3
6,T5L,3.6
7,T5A,4.19
8,T5R,3.77
9,T5Y,2.19
10,T5N,4.28
11,T5W,2.71
12,T5C,3.58
13,T5S,4.01
14,T5F,2.35
15,T5G,3.53
16,T5K,4.01
17,T5P,4
18,T5V,3.86
19,T5Q,3.74
20,I2H,3.36
21,I2T,4.88
22,I2K,5.46

row,Variant,protein stability index
1,I2M,4.84
2,I2A,4.66
3,I2R,5.32
4,I2L,5.06
5,I2W,4.79
6,I2Q,4.58
7,I2S,5.02
8,I2C,3.34
9,I2P,5.21
10,I2F,5.38
11,I2E,5.59
12,I2N,5.67
13,I2V,2.78
14,I2Y,4.95
15,I2G,5.75
16,I2D,5.62
17,S3H,3.59
18,S3Q,4.09
19,S3A,4.44
20,S3V,3.6
21,S3N,4.62
22,S3M,4

row,Variant,protein stability index
1,S3F,3.57
2,S3G,3.17
3,S3E,4.78
4,S3W,2.85
5,S3C,4.11
6,S3R,4.02
7,S3T,4.26
8,S3L,3.95
9,S3K,4.56
10,S3Y,3.37
11,S3I,3.21
12,S3P,3.67
13,S3D,4.67
14,F1R,4.92
15,F1N,5.29
16,F1Q,5.63
17,F1E,5.46
18,F1K,5.42
19,F1L,5.6
20,F1G,5.71
21,F1Y,4.39
22,F1C,5.29

row,Variant,protein stability index
1,F1V,5.41
2,F1I,5.73
3,F1M,5.24
4,F1H,5.37
5,F1A,5.37
6,F1W,4.88
7,F1T,5.32
8,F1S,5.84
9,F1P,5.89
10,F1D,5.56
11,S6C,3.95
12,S6G,3.58
13,S6K,4.27
14,S6L,2.66
15,S6A,3.98
16,S6E,4.86
17,S6H,3.48
18,S6N,4.53
19,S6I,3.61
20,S6F,1.83
21,S6D,4.39
22,S6M,3.15

row,Variant,protein stability index
1,R4V,4.39
2,R4G,4.62
3,R4S,4.2
4,R4Q,4.6
5,R4D,4.92
6,R4A,3.49
7,R4W,3.67
8,R4K,3.86
9,R4H,4.15
10,R4I,3.85
11,R4N,4.64
12,R4M,4.25
13,R4T,4.94
14,R4F,3.15
15,R4P,3.68
16,R4E,5.35
17,R4Y,4.1
18,R4C,4.37
19,R4L,4.05

# Variants of: B2
# Experiment: as above
# Conditions: c terminus: native
row,Variant,protein stability index
1,W20Y,2.26
2,W20T,4.15
3,W20S,4.58
4,W20N,4.45
5,W20K,5
6,W20M,3.15
7,W20G,1.33
8,W20Q,3.66
9,W20I,3.89
10,W20F,2.87
11,W20C,2.99
12,W20R,4.73
13,W20A,3.77
14,W20L,4.36
15,W20H,2.02
16,W20V,3.67
17,W20P,2.01
18,T3F,1.95
19,T3Y,1.01
20,T3P,1.67
21,T3I,2.94
22,T18M,2
23,T18H,1.7
24,T18D,3.96
25,T18A,2.96
26,T18Q,2.47

row,Variant,protein stability index
1,T18E,3.94
2,T18S,2.69
3,T18G,3.94
4,T18I,1.4
5,T18C,1.63
6,T18Y,2.37
7,T18F,2.03
8,T18L,3.05
9,T18N,1.74
10,T18V,1.29
11,A13F,2.49
12,A13S,2.71
13,A13W,2.94
14,A13R,1.64
15,A13E,2.55
16,A13K,1.11
17,A13N,1.94
18,R19W,2.67
19,R19N,2.5
20,R19D,5.13
21,R19E,3.77
22,R19Y,1.92
23,R19K,1.49
24,R19L,3.09
25,R19H,2.59
26,R19M,2.41

row,Variant,protein stability index
1,R19F,2.3
2,R17L,1.7
3,R17F,2.48
4,R17G,2.75
5,R17E,2.26
6,R17S,2.7
7,R17Y,2.15
8,R17I,1.98
9,R17D,4.38
10,R17C,1.93
11,R17Q,1.01
12,R17N,3.66
13,R17A,2.5
14,R17P,4.37
15,R17T,2.59
16,R17W,1.66
17,R17K,1.36
18,R14G,4.21
19,R14K,2.05
20,R14A,3.44
21,R14C,2.81
22,R14F,2.72
23,R14V,3.24
24,R14H,2.71
25,R14I,3.23
26,R14E,3.01

row,Variant,protein stability index
1,R14Y,3
2,R14P,4.64
3,R14W,1.54
4,R14M,3.01
5,G21F,3.36
6,G21P,4.47
7,G21I,2.85
8,G21T,3.57
9,G21D,4
10,G21A,3.47
11,G21N,4.39
12,G21E,4.54
13,G21L,3.56
14,G21V,2.78
15,G21W,2.69
16,G21K,4.43
17,G21Q,4.45
18,G21H,4.34
19,G21C,3.16
20,G21M,3.89
21,E12T,1.42
22,E12Y,2.69
23,E12R,3.79
24,E12F,1.23
25,E12L,2.17
26,E12V,1.23

row,Variant,protein stability index
1,E12M,1.47
2,E12C,3.61
3,E12H,2.21
4,E12K,1.01
5,E12Q,1.75
6,E12D,2.56
7,K8L,2.63
8,K8C,1.65
9,K8E,1.63
10,K8I,1.37
11,K8S,2.25
12,K8Q,2.41
13,K8M,2.25
14,K8P,2.52
15,N23D,2.78
16,N23C,1.61
17,N23L,1.42
18,N23I,1.3
19,N23P,2.62
20,N23F,2.03
21,N23T,2.35
22,N23S,1.74
23,N23Q,1.63
24,N23W,2.27
25,C5E,2.57
26,C5R,2.29

row,Variant,protein stability index
1,C5I,1.63
2,C5Y,1.98
3,C5S,1.51
4,C5P,2.09
5,C5V,2.93
6,C5F,1.85
7,C5L,2.41
8,C5G,2.34
9,C5K,2.27
10,C5T,2.35
11,C5M,2.41
12,C5W,1.2
13,C5N,1.59
14,C5Q,1.54
15,C5A,2.57
16,L9N,2.8
17,L9P,2.92
18,L9H,1.62
19,L9C,2.4
20,L9R,2.64
21,L9V,2.02
22,L9Q,2.72
23,K7M,4.17
24,K7V,1.08
25,K7E,1.87
26,K7H,2.33

row,Variant,protein stability index
1,K22T,2.93
2,K22P,3.43
3,K22I,4.11
4,G4N,1.01
5,G4V,2.14
6,G4C,2.51
7,G4I,2.66
8,G4L,2.91
9,G4E,3.67
10,G4F,2.72
11,G4P,2.15
12,G4M,2.44
13,G4R,2.47
14,G4D,2.33
15,G4S,2.56
16,G4K,2.71
17,R15Y,2.06
18,R15V,1.34
19,R15F,3.27
20,R15C,1.41
21,R15P,2.75
22,R15G,3.43
23,R15E,2.63
24,R15N,2.42
25,R15H,2.44
26,R15Q,1.75

row,Variant,protein stability index
1,R15I,1.27
2,R15L,1.7
3,P11S,1.53
4,P11D,2.18
5,P11M,2.37
6,P11A,2.24
7,P11W,1.46
8,P11R,1.01
9,P11T,2.67
10,P11K,2.05
11,P11Y,2.17
12,P11V,2.25
13,P11F,2.47
14,P16K,3.74
15,P16N,3.05
16,P16G,3.15
17,P16E,1.8
18,P16C,1.24
19,P16H,1.39
20,P16S,1.46
21,P16Q,1.03
22,H6S,1.85
23,H6G,1.64
24,H6A,1.63
25,H6E,1.41
26,H6Y,2.62

row,Variant,protein stability index
1,H6R,2.85
2,H6T,1.76
3,H6K,1.38
4,H6M,2.12
5,H6F,1.81
6,H6P,1.77
7,G10L,1.22
8,G10F,1.66
9,G10V,1.39
10,G10Y,1.29
11,G10I,1.33
12,G10T,2.48
13,G10H,1.74
14,G10M,1.61
15,G10K,2.05
16,G10W,2.17
17,G10A,3.09
18,G10P,3.1
19,G10R,2.37
